Patent US20220396632A1 (VERSEAU THERAPEUTICS, published 2022)

T1: Biotin PSGL-1(42-62) D52A peptide (C-terminal Lys-biotin)
T1 peptide: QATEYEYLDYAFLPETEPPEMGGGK

T2: Biotin PSGL-1(42-62) P55A peptide (C-terminal Lys-biotin)
T2 peptide: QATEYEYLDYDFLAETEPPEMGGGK

T3: Recombinant human PSGL-1(ECD)-hFc1 (R&D Systems, Cat. 3345-PS) (human, UniProt Q14242 42-305)
T3 construct: Bought; Gln42-Val295 counted on AAC50061; also called PSGL-1-Fc; PSGL-1-hFc1 chimera; not shown: human IgG1 Fc, Pro100-Lys330
T3 sequence: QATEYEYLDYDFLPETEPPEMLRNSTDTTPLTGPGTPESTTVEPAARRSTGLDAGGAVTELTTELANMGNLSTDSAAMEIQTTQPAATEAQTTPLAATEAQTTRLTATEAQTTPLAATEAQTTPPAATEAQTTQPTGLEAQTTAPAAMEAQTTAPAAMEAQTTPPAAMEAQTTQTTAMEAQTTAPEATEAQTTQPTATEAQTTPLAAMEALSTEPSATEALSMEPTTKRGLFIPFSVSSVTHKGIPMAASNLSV


Experiments:
[1] = target: T1, Biotin PSGL-1(42-62) D52A peptide; assay: ELISA; against wild-type PSGL-1 42-62
[2] = target: T2, Biotin PSGL-1(42-62) P55A peptide; assay: ELISA; against wild-type PSGL-1 42-62
[3] = target: PSGL-1(ECD)-hFc1 M119A protein (Sino Biological) (human); assay: ELISA; against WT PSGL-1(ECD)-hFc1
Protocol: (§1) A typical ELISA experiment involved binding of a single concentration or serially diluted mAb in assay buffer (3% BSA in PBS containing 0.05% Tween®20, pH 7.4) onto BSA blocked high binding microtiter plate half-wells (Corning Cat. #3690), which contained PSGL-1 protein or streptavidin-immobilized biotin peptide. After incubation for 45 min. at 37° C., the plate was washed 3 times with wash buffer (PBS containing 0.05% Tween®20, pH 7.4), and an appropriate HRP-conjugated secondary antibody added (25 ul/well) (HRP goat anti-mouse or anti-human IgG). After 45 min. incubation at 37° C., the plate was washed and antibody bound to plate-immobilized target was determined at A450 nm using HRP substrate (3,3′5,5′-tetramethylbenzidine (TMB)). For each antibody, duplicate values were averaged and assay background subtracted.

[4] = target: PSGL-1(ECD)-hFc1 I121A protein (Sino Biological) (human); assay: ELISA; against WT PSGL-1(ECD)-hFc1
Protocol: as §1

[5] = target: PSGL-1(ECD)-hFc1 S116A protein (Sino Biological) (human); assay: ELISA; against WT PSGL-1(ECD)-hFc1
Protocol: as §1

[6] = target: T3, Recombinant human PSGL-1(ECD)-hFc1 (R&D …); assay: Octet tandem; competitor 19J23
Protocol: (§2) Antibody binning was performed by ForteBio Octet® using a tandem assay format, with anti-human IgG biosensor-immobilized PSGL-1(ECD)-hFc1 protein, binding of competitor mAb followed by analyte antibody. As competition controls, the same antibody was competed against itself, and mAb competition was performed bidirectionally.
(§3) Antibody binning by tandem octet was performed by immobilizing 10 ug/mL PSGL-1(ECD)-hFc1 (R&D Systems, Cat. #3345-PS) in PBS, pH 7.4, onto anti-human IgG capture biosensors (ForteBio, Cat. #18-5060), binding of 100 nM competitor antibody for 300 sec., followed by binding of 100 nM of analyte mAb for 300 s in kinetic buffer (0.1% BSA in PBS containing 0.02% tween 20 and 0.05% sodium azide, pH 7.4). Synagis (Johnson et al. (1997) J. Infect. Dis. 176:1215-1224) served as a negative control mAb for competition. An Fc quench step (0.25 mg/mL human IgG Fcl; BioXcell, Cat. #BE0096, in kinetic buffer) was included when human mAbs were tested to prevent high background from the antibodies binding to the anti-human IgG biosensor. Biosensor regeneration buffer consisted of 10 mM glycine, pH 2.0.

[7] = target: T3, Recombinant human PSGL-1(ECD)-hFc1 (R&D …); assay: Octet tandem; competitor 16E17
Protocol: as §2, §3

[8] = target: T3, Recombinant human PSGL-1(ECD)-hFc1 (R&D …); assay: Octet tandem; competitor 15A7
Protocol: as §2, §3

[9] = target: T3, Recombinant human PSGL-1(ECD)-hFc1 (R&D …); assay: Octet tandem; competitor 19L04
Protocol: as §2, §3

[10] = target: T3, Recombinant human PSGL-1(ECD)-hFc1 (R&D …); assay: Octet tandem; competitor 19N05
Protocol: as §2, §3

| Binder | EC50Ala/EC50 wt [1] [fold] | EC50Ala/EC50 wt [2] [fold] | EC50/EC50WTprot [3] [fold] | EC50/EC50WTprot [4] [fold] | EC50/EC50WTprot [5] [fold] | % binding of analyte mAb [6] [%] | % binding of analyte mAb [7] [%] | % binding of analyte mAb [8] [%] | % binding of analyte mAb [9] [%] | % binding of analyte mAb [10] [%] |
| --- | --- | --- | --- | --- | --- | --- | --- | --- | --- | --- |
| 18F02 (antibody, V domains shown, From mouse immunisation; only variable domains given) VH: QVQLQQPGAELVKPGASVKLSCKASGYTFTSYWMHWVKQRPGQGLEWIGMIHPNSGRTNYNEKFKSKATLTVDKSSSTAYMQLSSLTSEDSAVYYCARSDYWGQGTTLTVSS VL: DIVMTQAAFSNPVTLGTSASISCRSSKSLLHSDGITYLYWFLQRPGQSPQLLIYRMSNLASGVPDRFSGSGSGTDFTLRISRVEAEDVGVYYCAQMLEFPRTFGGGTKLEIK | > 100 | – | – | – | – | – | – | – | – | – |
| 19I01 (antibody, V domains shown, From mouse immunisation; only variable domains given; also called 19101) VH: EVQLVESGGGLVKPGGSRKLSCAASGFTFSDYGMHWVRQAPEKGLEWVAYISSGSSTIYYADTVKGRFTISRDNAKNTLFLQMTSLRSEDTAMYYCARGVDGYWGQGTTLTVSS VL: DVVMTQTPLSLPVSLGDQASISCRSSQSLVHSNGNTYLHWYLQKPGQSPKFLIYKVSNRFSGVPDRFSGSGSGTDFTLKISRVEAEDLGVYFCSQTTHVPLTFGAGTKLELK | 15.9 | 68.4 | – | – | – | – | – | – | – | – |
| 16E17 (antibody, V domains shown, From mouse immunisation; only variable domains given) VH: QIQLVQSGPELKKPGETVKISCKASGYAFTTYGMSWVKQAPGKGLKWMGWINTYSGVPKYADDFKGRFAFSLETSASTAYLHINNLKNEDTATYFCGRHYYGSSYFDYWGQGTTLTVSS VL: not shown | – | – | 1.58 | 2.8 | 1.45 | 103 | 16.3 | 21 | 0 | 5.1 |
| 19N05 (antibody, V domains shown, From mouse immunisation; only variable domains given) VH: QIQLVQSGPELKKPGETVKISCKASGYTFTTYGMSWVKQAPGKGLKWMGWINTYSGVPTFADDFKGRFAFSLETSASTAYLQINNLKNEDTATFFCARNYYGNHYFDYWGQGTTLTVSS VL: DVQITQSPSYLAASPGETISINCRASNNINKYLAWYQEKPGKTNKLLIYSGSTLQSGIPSRFSGSGSGTDFTLTISSLEPEDFAMYHCQQHNYYPLTFGAGTKLELK | – | – | 1.34 | 1.39 | 1.43 | 125 | 29.1 | 36 | 39.4 | 69.4 |
| 19L04 (antibody, IgG4, V domains shown, From mouse immunisation; only variable domains given) VH: QIQLVQSGPELKKPGETVKISCKASGYTFTTYGMSWVKQAPGKGLKWMGWINTYSGVPTYADDFKGRFAFSLETSASTAYLQINNLKIEDTATYFCARHYYGSHYFDYWGQGTTLTVSS VL: DIMMTQSPSSLAMSVGQKVTLRCKSSQSLLNSSNQKNYLAWYQQKPGQSPKLLVYFASTRESGVPVRFIGSGSGTDFTLTISSMQAEDLADYFCQQHYFSPLTFGAGTKLELK | – | – | 1.26 | 1.42 | 1.44 | 104 | 61.9 | 28.3 | 35.9 | 44.3 |
| 43B6 (antibody, V domains shown, Control anti-PSGL-1 mAb, recombinant; only variable domains given; also called 43B3) VH: EVQLQQSGPDLVKPGALVKISCKASGYSFTAYYIHWVKQSHGKSLEWIGRVNPNTGGTSYNPKFKGKAILNVDKSSSTAYMELRSLTSEDSAVYYCARSGSPYYRYDDWGQGTTLTVSS VL: ENVLTQSPAIMSASPGEKVTMTCRASSTVNSTYLHWFQQKSGASPKLWIYGSSNLASGVPARFSGSGSGTSYSLTISSVEAEDAATYYCQQYSGYPLTFGAGTTLELK | – | 9.5 | – | – | – | – | – | – | – | – |
| 16L15 (antibody, V domains shown, From mouse immunisation; only variable domains given) VH: DVKLVESGGGLVKLGGSLKLSCAASGFTFSSYYMSWVRQTPEKRLEWVATISNGGGSTYYPDSVKDRFTISRDNAKNTLYLQMSSLNSEDTAVYYCAKPLYYSNPWFAYWGQGTLVTVSA VL: DVLLTQTPLSLPVSLGDQASISCRSSQSIVHSNGNTYLEWYLQKPGQSPKLLIYKVSNRFSGVPDRFSGSGSGTDFTLKISRVEAEDLGVYYCFQGSHVPRTFGGGTKLEIK | 21 | – | – | – | – | – | – | – | – | – |
| 9F9 (antibody, V domains shown, Control anti-PSGL-1 mAb, recombinant; only variable domains given; also called 9F6) VH: EVQLVETGGGLVQPKGSLKLSCAASGFTFNTNAMNWVRQAPGKGLEWVARIRSKSNNYATYYADSVKDRFTISRDDTQSMIYLQMNNLKTEDTGMYYCVRGGSYWYFDVWGAGTTVTVSS VL: DVLMTQTPLSLPVSLGDQASISCRSSQSIVNSNGNTYLEWYLQKPGQSPKLLIYKVSNRFSGVPDRFSGSGSGTDFTLKISRVEAEDLGVYYCFQGSHVPWTFGGGTKLEIK | – | > 100 | – | – | – | – | – | – | – | – |
| 18K07 (antibody, V domains shown, From mouse immunisation; only variable domains given) VH: QIQLVQSGPELKKPGETVKISCEASGYTFTTYGMNWVKQAPGKGLKWMGWINTYSGVPTYADDFQGRFAFSVETSATTAYLQINNLKNEDAATYFCARSDDTYYGFAYWGQGTLVTVSA VL: not shown | – | – | 0.81 | 0.89 | 1.02 | 92.9 | 11.7 | 23.9 | 0 | 0 |
